Substitutions are numbered along the chain they refer to. Names may count otherwise.

This note sets out measurements from paper PMC8497992, “Structural and functional characterization explains loss of dNTPase activity of the cancer-specific R366C/H mutant SAMHD1 proteins” (The Journal of Biological Chemistry, 2021).

The data set concerns the molecule itself. Kind of data set: crystal structure; HD domain (113-626) H206R/D207N constructs, 4 mg/ml, with 4 mM dGTP; microbatch under oil; 100 mM succinic acid-phosphate-glycine buffer, 30% PEG1500; tetramer.

B1: SAMHD1 (113-626) H206R/D207N/R366C (domain or fragment, UniProt Q9Y3Z3 113-626, looked up)
chain: DTMKVINDPIHGHIELHPLLVRIIDTPQFQRLRYIKQLGGGYYVFPGASHNRFEHSLGVGYLAGCLVHALGEKQPELQISERDVLCVQIAGLCRNLGHGPFSHMFDGRFIPLARPEVKWTHEQGSVMMFEHLINSNGIKPVMEQYGLIPEEDICFIKEQIVGPLESPVEDSLWPYKGRPENKSFLYEIVSNKRNGIDVDKWDYFARDCHHLGIQNNFDYKRFIKFARVCEVDNELRICARDKEVGNLYDMFHTCNSLHRRAYQHKVGNIIDTMITDAFLKADDYIEITGAGGKKYRISTAIDDMEAYTKLTDNIFLEILYSTDPKLKDAREILKQIEYRNLFKYVGETQPTGQIKIKREDYESLPKEVASAKPKVLLDVKLKAEDFIVDVINMDYGMQEKNPIDHVSFYCKTAPNRAIRITKNQVSQLLPEKFAEQLIRVYCKKVDRKSLYAARQYFVQWCADRNFTKPQDGDVIAPLITPQKKEWNDSTSVQNPTRLREASKSRVQLFKDDPM
notes: Crystallised with 4 mM dGTP; also called R366C (crystal construct); SAMHD1 HD/RN R366C
By stoichiometry N is commonly meant the number of molecules, sites or subunits per partner or assembly. For B1, the “stoichiometry N” value is 4.

B2: SAMHD1 (113-626) H206R/D207N/R366H (domain or fragment, UniProt Q9Y3Z3 113-626, looked up)
chain: B1 chain with C254H
notes: Crystallised with 4 mM dGTP; also called R366H (crystal construct); SAMHD1 HD/RN R366H
B2: the “stoichiometry N” value was 4.
